Reference: patent US20160039904A1, “STABILIZED SINGLE HUMAN CD4 DOMAINS AND FUSION PROTEINS” (priority 2013, published 2016)

Key:
[1] = target: HIV-1 Env of isolate A07412VRC12A (HIV-1); test: cell-based or functional assay
[2] = target: HIV-1 Env of isolate YN192.31 (HIV-1); test: cell-based or functional assay
[3] = target: HIV-1 Env of isolate CH70 (HIV-1); test: cell-based or functional assay
[4] = target: HIV-1 Env of isolate CNE66 (HIV-1); test: cell-based or functional assay
[5] = target: HIV-1 Env of isolate CH120 (HIV-1); test: cell-based or functional assay
[6] = target: HIV-1 Env of isolate CNE46 (HIV-1); test: cell-based or functional assay
[7] = target: HIV-1 Env of isolate CNE7 (HIV-1); test: cell-based or functional assay
[8] = target: HIV-1 Env of isolate CH114 (HIV-1); test: cell-based or functional assay
[9] = target: HIV-1 Env of isolate CNE16 (HIV-1); test: cell-based or functional assay
[10] = target: HIV-1 Env of isolate GX2010.36 (HIV-1); test: cell-based or functional assay
gp140Con-s (HIV-1) = test: ELISA (OD 450 nm) on Cons gp140 (gp140Con-s), sCD4Fc titrated [A]

In the case of “D1D2Fc (from UniProt P01730 26-203) (Fc fusion)”, the IC50, neutralization in TZM-bl cell-based assay [1] was 57 nM, the IC90, neutralization in TZM-bl cell-based assay [1] was > 250 nM and the neutralization IC50 [2] was 155 nM. The neutralization IC90 [2] was > 250 nM, the neutralization IC50 [3] was 7.3 nM and the neutralization IC90 [3] was 109 nM. The neutralization IC50 [4] was 159 nM, the neutralization IC90 [4] was > 250 nM and the neutralization IC50 [5] was 104 nM. The neutralization IC90 [5] was > 250 nM, the neutralization IC50 [6] was 99 nM and the neutralization IC90 [6] was > 250 nM. The neutralization IC50 [7] was 19 nM, the neutralization IC90 [7] was 161 nM and the neutralization IC50 [8] was 23 nM. For the same substance, the neutralization IC90 [8] was 198 nM, the neutralization IC50 [9] was 11 nM and the neutralization IC90 [9] was 229 nM. For the same substance, the neutralization IC50 [10] was 12 nM, the neutralization IC90 [10] was > 250 nM and the EC50 (read off the curve) (gp140Con-s (HIV-1)) was 1 nM.
